Test results reported in paper PMC7950113.

Tests used:
Assay in all cases: Co-AP mass spectrometry with TMT quantification
[1] = molecular target: oligosaccharyl transferase complex catalytic subunit A [human (endogenous in HEK293 cells)]; settings: TMT intensities of interactors normalized to Tg intensities, read off a plot
[2] = molecular target: MOGS; settings: HEK293 cells; TMT intensities of interactors normalized to Tg intensities; read off a plot
[3] = molecular target: PSME2; settings: HEK293 cells; TMT intensities of interactors normalized to Tg intensities; read off a plot
[4] = molecular target: PSMD3; settings: HEK293 cells; TMT intensities of interactors normalized to Tg intensities; read off a plot
[5] = molecular target: UGGT2; settings: HEK293 cells; TMT intensities of interactors normalized to Tg intensities; read off a plot
[6] = molecular target: PSMA1; settings: HEK293 cells; TMT intensities of interactors normalized to Tg intensities; read off a plot
[7] = molecular target: PSMB4; settings: HEK293 cells; TMT intensities of interactors normalized to Tg intensities; read off a plot
[8] = molecular target: PSMC4; settings: HEK293 cells; TMT intensities of interactors normalized to Tg intensities; read off a plot
[9] = molecular target: PRKCSH; settings: HEK293 cells; TMT intensities of interactors normalized to Tg intensities; read off a plot
[10] = molecular target: calreticulin [human (endogenous in HEK293 cells)]; settings: TMT intensities of interactors normalized to Tg intensities, read off a plot

Row | screen value [1] | other: log2 fold change vs WT [2] | other: log2 fold change vs WT [3] | other: log2 fold change vs WT [4] | other: log2 fold change vs WT [5] | other: log2 fold change vs WT [6] | other: log2 fold change vs WT [7] | Substance | other results
1 | -0.37 log2 | – | – | – | – | – | – | FLAG-tagged thyroglobulin, WT mutant C1264R [human] / oligosaccharyl transferase complex catalytic subunit A [human (endogenous in HEK293 cells)] chain 1 C1245R | –
2 | -0.15 log2 | – | – | – | – | – | – | FLAG-tagged thyroglobulin, WT mutant A2234D [human] / oligosaccharyl transferase complex catalytic subunit A [human (endogenous in HEK293 cells)] chain 1 A2215D | –
3 | -0.21 log2 | – | – | – | – | – | – | FLAG-tagged thyroglobulin, WT mutant G2341R [human] / oligosaccharyl transferase complex catalytic subunit A [human (endogenous in HEK293 cells)] chain 1 G2322R | –
4 | -0.1 log2 | – | – | – | – | – | – | FLAG-tagged thyroglobulin, WT mutant L2284P [human] / oligosaccharyl transferase complex catalytic subunit A [human (endogenous in HEK293 cells)] chain 1 L2265P | –

The remaining lines, values behind:

Row | Substance | screen value [1] | other: log2 fold change vs WT [2] | other: log2 fold change vs WT [3] | other: log2 fold change vs WT [4] | other: log2 fold change vs WT [5] | other: log2 fold change vs WT [6] | other: log2 fold change vs WT [7] | other results
5 | FLAG-tagged thyroglobulin, WT (from UniProt P01266) L2284P | – | -0.02 log2 | -0.45 log2 | -0.33 log2 | 0.49 log2 | -0.04 log2 | -0.51 log2 | other: log2 fold change vs WT [8]: -0.27 log2
6 | FLAG-tagged thyroglobulin, WT (from UniProt P01266) A2234D | – | 0.09 log2 | -0.27 log2 | -0.35 log2 | 0.15 log2 | -0.28 log2 | -0.33 log2 | other: log2 fold change vs WT [9]: -0.39 log2
7 | FLAG-tagged thyroglobulin, WT (from UniProt P01266) G2341R | – | -0.05 log2 | -0.65 log2 | -0.42 log2 | 0.73 log2 | 0.04 log2 | -0.53 log2 | other: log2 fold change vs WT [8]: -0.51 log2
8 | FLAG-tagged thyroglobulin, WT mutant A2234D [human] / calreticulin [human (endogenous in HEK293 cells)] chain 1 A2215D | – | – | – | – | – | – | – | screen value [10]: 0.07 log2
9 | FLAG-tagged thyroglobulin, WT mutant L2284P [human] / calreticulin [human (endogenous in HEK293 cells)] chain 1 L2265P | – | – | – | – | – | – | – | screen value [10]: 0.5 log2
10 | FLAG-tagged thyroglobulin, WT mutant G2341R [human] / calreticulin [human (endogenous in HEK293 cells)] chain 1 G2322R | – | – | – | – | – | – | – | screen value [10]: 0.46 log2
11 | FLAG-tagged thyroglobulin, WT (from UniProt P01266) C1264R | – | -0.15 log2 | -0.54 log2 | -0.45 log2 | -0.09 log2 | -0.27 log2 | -0.35 log2 | other: log2 fold change vs WT [8]: -0.53 log2; other: log2 fold change vs WT [9]: -0.05 log2
